The data set relates to MS2 coat protein. The data set is described as follows: apparent KD of MS2 coat protein; designed switch direction (-1 OFF switch, 1 ON switch): -1; higher = weaker reporter binding. In outline:
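Designed RNA switches with common flanks were transcribed on Illumina chips by stalled E. coli RNA polymerase and titrated with SNAP-549-labelled MS2 coat protein, from 0.7 or 1.5 nM doubling to 3 µM, in Tris-HCl pH 7.5 buffer with KCl, MgCl2, BSA, DTT, tRNA and Tween-20. Steps lasted 0.8–1.5 h (lowest) to 10–20 min (highest). Titrations ran without input, with 200 uM small-molecule ligand, or with an oligonucleotide input. Normalised cluster fluorescence was curve-fitted, and apparent KD is the per-design median over clusters.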

Where [1] appears, read: input ligand: microRNA oligo, concentration not stated.
Where [2] appears, read: Eterna round: R95, input ligand: microRNA oligo, concentration not stated.

This is an account of results in the supplement of paper PMC9170038.

Turning to “GUACCAAAUGUAGGAUAUGGAUCCGAUUAGGAUCCAGAAGGACAUGAGGAUCACCCAUGUACAUGAGGAUCACCCAUUAGGUAC [Fiskers ExNg1 - 11] (Eterna round: R96, puzzle: Exclusion NG 1)”, the “apparent KD of MS2 coat protein” value runs as follows: (input ligand: FMN 200 uM) 97.2 nM; under setting [1], 26.3 nM; (input ligand: none) 34.2 nM.
For “GUACUACAUGAGGAUCACCCAUGUCAGGAUAUGCGAAUUUCAUCAAAAGAUGAAAUUUGCAGAAGGGACAGUAC [Omei Ex1 A1] (Eterna round: R97, puzzle: Exclusion 1)”, the “apparent KD of MS2 coat protein” value (input ligand: FMN 200 uM) is 35.3 nM and the “apparent KD of MS2 coat protein” value (input ligand: none) was determined as 24.1 nM.
For “GUACUAGAAUAUCAGUCGCACAUGAGGAUCACCCAUGUCAUGGGUAGAUCAAUAAAUAAAGAUACUGCUCGUCUUAU [Cac sensor turnoff var1 sub2] (Eterna round: R97, puzzle: Sensor, turn-off variant 1)” the same measures were 496 nM and 378 nM.
As for “GUACUGAAGCUUUGCUUUAGUCGUACAUGAGGAUCACCCAUGUAGGAUAUGGUAGGCAUAGCUUACUAGAAGGAUAGAGUGAUC [Mat - Exclusion NG 3 - Mod of JL - D64] (Eterna round: R96, puzzle: Exclusion NG 3)”, the “apparent KD of MS2 coat protein” value worked out at 112 nM (input ligand: FMN 200 uM), 86 nM under setting [1] and 81.3 nM (input ligand: none).
For “GUACUGACAGGAUAUACAUGAGGAUCACCCAUGUGCCCUUAAAGAUGCAAAGCAUCAAGUAGAAGGGUCUGUAC [Omei Ex3 Model Bachelor's Dilema v21] (Eterna round: R97, puzzle: Exclusion 3)”, the “apparent KD of MS2 coat protein” value (input ligand: FMN 200 uM) is 53 nM and the “apparent KD of MS2 coat protein” value (input ligand: none) was 40.5 nM.
For the sequence “GUAGAGUAAGGAUAUGCUGAAUAGGAUAGAAUGGUUAGAAAGCAGAAGGUACAUGAGGAUCACCCAUGUAAUGU [Excluse me!!!! 18 - Jieux - Exclusion 4] (puzzle: Exclusion 4)”, the “apparent KD of MS2 coat protein” value under setting [2] worked out at 20 nM.
Take “GUAGAGUCAGGAUAUACAAGAUCGAUAGAUCAAAGACCCAUACAUGAGGAUCACCCAUGUAGAAGGGACUCUAC [Mat - Exclusion 2 - Eli Mod - D11] (Eterna round: R97, puzzle: Exclusion 2)”: the “apparent KD of MS2 coat protein” value runs as follows: (input ligand: FMN 200 uM) 23 nM; (input ligand: none) 18.7 nM.
On to “GUAGAGUCAGGAUAUACGAGAUCGAAAGAUCGGCGAUCCCUACAUGAGGAUCACCCAUGUAGAAGGGACUCUAC [Eli x2 4.12] (Eterna round: R97, puzzle: Exclusion 2)”, for which the “apparent KD of MS2 coat protein” value (input ligand: FMN 200 uM) was determined as 28.7 nM and the “apparent KD of MS2 coat protein” value (input ligand: none) turned out to be 14.9 nM.
“GUAGAUCGAGUUAGGAUAUGAUUAAAAUCCGGAUAUCAGAAGGAACUUGAGGAUCACCCAAGUAUAGAUGAUUC [JR_BMEx4_Sub056] (Eterna round: R97, puzzle: Brourd's mod of Exclusion 4)”: the “apparent KD of MS2 coat protein” value (input ligand: FMN 200 uM) came to 216 nM and the “apparent KD of MS2 coat protein” value (input ligand: none) was 47.9 nM.
For “GUAGGGUCAGGAUAUACUGGCUGAGGGAUGUAUUGUAGUUGGUAGAAGGGACAUGAGGAUCACCCAUGUAAGAA [JR_Exclu4_Sub056] (puzzle: Exclusion 4)”, the “apparent KD of MS2 coat protein” value under setting [2] worked out at 31.6 nM.
The same measure, in the same setting: next, “GUAUAUAGUGUGAGGAUAUGCUGGUCCUUGGAUCAGCAGAAGGCACAUGAGGAUCACCCAUGUAGUUUAUUUUA [Mat - Exclusion 4 - JL Mod - D3] (puzzle: Brourd's mod of Exclusion 4)”: 25.8 nM.
In the case of “GUAUUUUGAGGAUAUACAUGAGGAUCACCCAUGUGUCGUAGCGCCAGCCUUAAUACGUGUAGAAGGCAGAAUGU [Eternabot (L1) Solution 75] (Eterna round: R97, puzzle: Exclusion 3)”, the “apparent KD of MS2 coat protein” value (input ligand: FMN 200 uM) was found to be 20 nM and the “apparent KD of MS2 coat protein” value (input ligand: none) worked out at 34 nM.
Regarding “GUCAGCUCGUCAGGAUAUACAUGAGGAUCACCCAUGUGAUCAAUAGCAGCUUCGGCUGCAUACAUGUAGAAGGGACGAGCUGAU [ENG2/6-B2] (Eterna round: R96, puzzle: Exclusion NG 2)”, the “apparent KD of MS2 coat protein” value (input ligand: FMN 200 uM) worked out at 195 nM, the “apparent KD of MS2 coat protein” value under setting [1] turned out to be 15.3 nM and the “apparent KD of MS2 coat protein” value (input ligand: none) was determined as 160 nM.
The like results for “GUCAGCUCGUGAGGAUAUACAUGAGGAUCACCCAUGUGAUCAAUAGCAGCUUCGGCUGCAUACAUGUAGAAGGCACGAGCUGAC [ENG2/6-A1] (Eterna round: R96, puzzle: Exclusion NG 2)” were, in that order, 22.4 nM, 19.7 nM and 28.5 nM.
For “GUCAGCUCGUGAGGAUAUACAUGAGGAUCACCCAUGUGGUCAAUAGCAGCUUCGGCUGCAAUAAUGUAGAAGGCACGAGCUGAC [ENG2/8-D] (Eterna round: R96, puzzle: Exclusion NG 2)” the same measures were 57.4 nM, 1030 nM and 208 nM.
The like results for “GUCAGCUCGUGAGGAUAUACAUGCGUGCUUCGGCACGAAUUUAAGAUCACAUGAGGAUCACCCAUGUAGAAGGUACGAGCUGAU [ENG2/3-C2] (Eterna round: R96, puzzle: Exclusion NG 2)” were, in that order, 590 nM, 320 nM and 387 nM.
As for “GUCAGGAAAGGAUAUACAAGUAGUCACUCUCUUUGCAGUUCACAUGAGGAUCACCCAUGUAGAAGGUUCGGACG [EX2 C.9] (Eterna round: R97, puzzle: Exclusion 2)”, the “apparent KD of MS2 coat protein” value was 38.9 nM (input ligand: FMN 200 uM) and 14.1 nM (input ligand: none).
As to “GUCAUGUAAGGAUAUCUUACAUGUGACUUCGGUCACUGUCAAGAGAAGGUACAUGAGGAUCACCCAUGUUCGAC [Ex4-3: 52] (Eterna round: R96, puzzle: Exclusion 4)”, the “apparent KD of MS2 coat protein” value (input ligand: FMN 200 uM) was 26.4 nM, the “apparent KD of MS2 coat protein” value under setting [1] turned out to be 19.2 nM and the “apparent KD of MS2 coat protein” value (input ligand: none) was 21 nM.
For the sequence “GUCAUGUAAGGAUAUCUUACAUGUGACUUCGGUCACUGUCAAGAGAAGGUACAUGAGGAUCACCCAUGUUCGAC [Ex4-3: 52] (puzzle: Exclusion 4)”, the “apparent KD of MS2 coat protein” value under setting [2] worked out at 16.2 nM.
The same measure, in the same setting: the figure for “GUCAUGUUAGGAUAUCUGACAUGUGACUUCGGUCACUGUCCAGAGAAGGAACAUGAGGAUCACCCAUGUUGGAC [Ex4-3: 55] (puzzle: Exclusion 4)” is 43.2 nM; for “GUCAUGUUAGGAUAUCUGGCAUGUGACUUCGGUCACUGUCCAGAGAAGGAACAUGAGGAUCACCCAUGUUGGAC [Ex4-3: 54] (puzzle: Exclusion 4)” it is 48.2 nM.
Turning to “GUCCCACAUGAGGAUCACCCAUGUGAGGAUAUGGUUUCGCUGGCCGUAGCCAGUGGAACCAGAAGGCGCGUGAU [Mat - Exclusion 1 - JL Mod - D17] (Eterna round: R97, puzzle: Exclusion 1)”, the “apparent KD of MS2 coat protein” value is, setting by setting: (input ligand: FMN 200 uM) 75 nM; (input ligand: none) 74.7 nM.
Take “GUCCGGCAUGUAGGAUAUGGAUCCGAUUAGGAUCCAGAAGGACAUGAGGAUCACCCAUGUACAUGUAAACAGUCAUCACCGGAC [Fiskers ExNg1 - 13] (Eterna round: R96, puzzle: Exclusion NG 1)”: the “apparent KD of MS2 coat protein” value by setting is: (input ligand: FMN 200 uM) 44.6 nM; under setting [1], 14.1 nM; (input ligand: none) 18.7 nM.
Regarding “GUCCUCAUGACAUGAGGAUCACCCAUGUAUUAUUUGGUAACUGAGGAUAUACUUUUAAUGUUUAUGUAGAAGGCAGAUACGGUU [JR_ExcNG3_Sub018] (Eterna round: R96, puzzle: Exclusion NG 3)”, the “apparent KD of MS2 coat protein” value is 197 nM (input ligand: FMN 200 uM), 53 nM under setting [1] and 62.3 nM (input ligand: none).
Consider “GUCCUCAUGACAUGAGGAUCACCCAUGUAUUAUUUGUUAACUGAGGAUAUACUCUUAAUUUUUAUGUAGAAGGCAGAUUCGGUC [JR_ExcNG3_Sub020] (Eterna round: R96, puzzle: Exclusion NG 3)”, for which, under setting [1], the “apparent KD of MS2 coat protein” value worked out at 24.8 nM.
In the case of “GUCCUGAGCGUUAGGAUAUUCACAGUGGACUACUGGAAGAAGGGACAUGAGGAUCACCCAUGUUCGAUACUGGG [Eternabot (L1) Solution 64] (Eterna round: R97, puzzle: Brourd's mod of Exclusion 4)”, the “apparent KD of MS2 coat protein” value (input ligand: FMN 200 uM) came out at 72.2 nM and the “apparent KD of MS2 coat protein” value (input ligand: none) amounted to 47.2 nM.
As for “GUCGUGCGGCUUUGCUGUGCGGGUACAUGAGGAUCACCCAUGUAGGAUAUGGUGCGCUUUGCGUGCCAGAAGGGCGUGCGUUGG [salish99_ExNG3_r04_010] (Eterna round: R96, puzzle: Exclusion NG 3)”, the “apparent KD of MS2 coat protein” value came to 45.7 nM (input ligand: FMN 200 uM), 28 nM under setting [1] and 36.4 nM (input ligand: none).
Consider “GUCUCAGCUGAGGAUAUAAACUCCCUUGAGGGUUUAGAAGGCAGUACAUGAGGAUCACCCAUGUGGUUCGUUUG [eternacac ex6r4 sub27] (Eterna round: R97, puzzle: Exclusion 6)”, for which the “apparent KD of MS2 coat protein” value came out at 486 nM (input ligand: FMN 200 uM) and 139 nM (input ligand: none).
“GUCUGGUUAGGAUAUACAGUGUCCACGAGUUAGUUGCCCUAACAUGAGGAUCACCCAUGUAGAAGGAGCGAGAA [Erisared] (Eterna round: R96, puzzle: Exclusion 2)”: the “apparent KD of MS2 coat protein” value amounted to 22.7 nM (input ligand: FMN 200 uM), 13.3 nM under setting [1] and 16.6 nM (input ligand: none).
Regarding “GUGAAACAUGAGGAUCACCCAUGUCAGGAUAUGAUACUAUGUACUUCGGUACAUAGUAUCAGAAGGGACAGUGA [Ex1-3: 3] (puzzle: Exclusion 1)”, the “apparent KD of MS2 coat protein” value under setting [2] is 74.4 nM.
Turning to “GUGAAACAUGAGGAUCACCCAUGUCAGGAUAUGCAUCCAGUUCACCUAUAAAGACGGUGUAGAAGGGACAAUAA [Eternabot (Original) Solution 7] (Eterna round: R97, puzzle: Exclusion 1)”, the “apparent KD of MS2 coat protein” value is, setting by setting: (input ligand: FMN 200 uM) 22.4 nM; (input ligand: none) 21.3 nM.
